The record followed here is patent publication US20240166738A1 (Alector, published 2024).

To fix the notation:
B1: TM-21 (antibody, V domains shown)
VH: EVQLVESGGGLVKPGGSLKLSCAASGFTFSNYAMSWVRETPEKRLEWVAFISDGGGYIYYADNVKDRFTISRDNAKNNLYLQMRHLKSEDTAMYYCARDGGTGFTYWGQGTLVTVSV
VL: DIVMTQAAFSNPVTLGTSASISCRSSKSLLHSNGITYLFWYLQKPGQSPQLLIYQMSNLASGVPDRFSSSGSGTDFTLRISRVEAEDVGVYYCVQNLELPYTFGGGTKLEIK
B2: TM-29 (antibody, V domains shown)
VH: QVQLRQSGAELVRPGASVKLSCKASGYTFTDYYINWVKQRPGQGLEWIARIYPGSGYTYYNEKFKGKATLTAEGSSNTAYMQLSSLTSEDSAVYFCANHYTNPFAYWGQGTLVTVSA
VL: DIVMTQAAFSNPVTLGTSASISCRSSKSLLHYNGITYLYWYLQKPGQSPQLLIYQMSNLASGVPDRFSSSGSGTDFTLRISRVEAEDVGVYYCAQNLELPYTFGGGTKLEIK
B3: TM-11 (antibody, V domains shown)
VH: QVQLKQSGPGQVQPSQSLSITCTVSGFSLSDYGVHWVRQSPGKGLEWLGVIWNNGNTDYNAAFISRLSINKDNSKSQVFFKMTSLQADDTAIYYCVRSLRPLHFDYWGQGTTVTVSS
VL: DIVMTQSPSSLTMSVGQKVTMHCKSSQSLLNSNNLQNYLAWYQQKPGQSPTLLVYFASIRESGVPDRFIGSGSGTDFTLTISSVQAEDLADYFCQQHYNTPFTFGSGTKLEIR
B4: TM-24 (antibody, V domains shown)
VH: QVQLKQSGPGQVQPSQSLSITCTVSGFSLSDYGVHWVRQSPGKGLEWLGVIWNNGNTDYNAAFISRLSINKDNSKSQVFFKMTSLQADDTAIYYCVRSLRPLHFDYWGQGTTVTVSS
VL: DIVMTQSPSSLTMSVGQKVTMNCKSSQSLLNSNNQQNYLAWYQQKPGQSPKLLVYFASIRESGVPDRFIGSGSGTDFTLTINSVQAEDLADYFCQQHYSTPFTFGSGTKLEIR
B5: TM-76 (antibody, V domains shown)
VH: QVTLKESGPGILQPSQTLSLTCSFSGFSLSTSGMGVSWIRKPSGKGLEWLAHIFWDDDKRYNLFLKSRLTVSKDTSSNQVFLMITSVDTTDTATYYCARMGRQRDYFDYWGQGTSLTVSS
VL: QIILTQSPAIMSASLGEEITLTCSASLSISYVHWYQQKSGASPKLLIYGTSNLASGVPSRFSGSGSGTFYSLTISSVEAEDAADYYCHQWSIYRTFGGGTKLEMK
B6: TM-25 (antibody, V domains shown)
VH: EVQLVESGGDLVKPGGSLRLSCAASGFTFSGYGMSWIRQTPDKRLEWVATISSGGRYTVYPDSVKGRFTMSRDNVKNTLYLQMSSLKSEDTALYYCARDNFYSYAMDYWGLGTSVTVSA
VL: DIVMTQAAFSNPVTLGTSASISCRSSKSLLHSNGITYLFWYLQKPGQSPQLLIYQMSNLASGVPDRFSSSGSGTDFTLRISRVEAEDVGVYYCAQNLELWTFGGGTKLEIK
B7: TM-10 (antibody, V domains shown)
VH: QVQLQQSGAELVKPGASVKISCKGSGYAFSSYWMNWVKQRPGKGLEWIGQIYPGDGDTNYNGKFKGKATLTADKSSTTAYIHLSSLTSEDSAVYFCARWGHYDEAMDDWGQGTSVTVSS
VL: DVVMTQTPLSLPVSLGDQASISCRSSQSLVHSNGKTYLHWYVQKPGQSPKLLIYKISNRFSGVPDRFSGSGSGTDFTLKISRVEAEDLGVYFCSQITHVPWTFGGGTKLESK
B8: TM-35 (antibody, V domains shown)
VH: QVQLQQSGPELVRPGTSVKISCKAPGYTFTRHWMQWVRQRPGQGLEWIGEILPGSNNIYYNEKVKGKATLTVDTSSSTSYMQLSSLTSEDSAVYFCARSLYDYDGVFAYWGQGTLVTVSA
VL: DVLMTQIPLSLPVSLGDQASISCRSSQSIVHRNGNTYLEWYLQKPGQSPKLLIYKVSNRFSGVPDRFSGSGSGTDFTLKISRVEAEDLGVYYCFQGSHVPYTFGGGTKLEIK
B9: TM-32 (antibody, V domains shown)
VH: EVQLQQSGAELVRPGASVRLSCIASGFNIKDYYMYWVKQRPEQGLEWIGRIDPEDGDTEYVPKFQGKATMTADTSSNTAYLQLSSLTSEDIGVYYCTTRTWDLYYAVDNWGQGTSVTVSS
VL: DVLMTQTPLSLPVSLGDQASISCRSSQNIVHSNGNTYLEWYLQKPGQSPKLLIDKVSNRFSGVPDRFSGSGSGTDFTLKISRVEAEDLGIYYCFQGSHVPFTFGSGTKLEIK
B10: TM-60 (antibody, V domains shown)
VH: QVQLQQSGPELVKPGASVKLSCKASGYTFTSYDINWVKQRPGQGLEWIGWIYPRDGNTQYIEKLKGKATLTVDTSSSTAYMELHSLTSEDSAVYFCARWIFYAMDYWGQGTSVTVSS
VL: DVLMTQTPLSLPVSLGDQASISCRSSQSIVHGNGNTYLEWYLQKPGQSPKLLIYKVSNRFSGVPDRFSGSGSGTDFTLKISRVEAEDLGVYYCFQGSHLPYTFGGGTKLEIK
B11: TM-48 (antibody, V domains shown)
VH: QVQLQQSGPELVKPGASVKLSCKASGYTFTSYDINWVKQRPGQGLEWIGWIYPRDGNTQYIEKLKGKATLTVDTSSSTAYMELHSLTSEDSAVYFCARWIFYAMDYWGQGTSVTVSS
VL: DVLMTQTPLSLPVSLGNQASISCRSSQSIVHGNGNTYLEWYLQKPGQSPKLLIYKVSNRFSGVPDRFSGSGSGTDFTLKISRVEAEDLGVYYCFQGSHLPYTFGGGTKLEIK
B12: TM-63 (antibody, V domains shown)
VH: QVQLQQPGAELVKFGASVKLSCKASGYTFTSFWMHWVKQRPGQGLEWIGNIDPSDSETHYSQKFKDKATLTVDRSSNTAYIQLSSLTSEDSAVYYCARSSNWDNFDYWGQGTTVTVSS
VL: DIVMTQASPSVSVTPGESVSISCRSSQSLLHVNGNTYLYWFLQRPGRSPRLLIYRMSNLASGVPDRFSGSGSGTAFTLRISRVEAEDVGVYYCMQHLQYPFSFGSGTKLEMK
B13: TM-72 (antibody, V domains shown)
VH: QVQLQQPGAELVKPGTSVKLSCKASGSTFTNYWMHWVMQRPGQGLEWIGNIDPSDSDTHYNQKFKDRAKLTVDKSSSTAYMQLSGLTSEDSAVYYCARSRGGYYDYGEAMDYWGQGTSVTVSS
VL: DIVMTQAAPSVPVTPGESVSISCRSSKSLLHTNGNTYLFWFIQRPGQSPHLLIYRKSNLASGVPDRFSGSGSGTAFTLRISRVEAEDVGVYYCMQHLEYPFTFGSGTKLEIK
B14: TM-64 (antibody, V domains shown)
VH: QVQLQQPGAELVKPGASVKLSCKASGYTFTSYWMHWVKQRPGHGLEWIGNIDPSDSDTHYNQNFRGKATLTVDKFSTTAYMHLSSLTSEDSAVYYCARSRGGTYDYGEAMDYWGQGTSVTVSS
VL: DIVMTQAAPSVPVTPGESVSISCRSSKSLLHTNGNTYLFWFLQRPGRSPQLLIYRMSNLASGVPDRFSGSGSGTAFTLRISRVEAEDVGVYYCMQHLEYPFTFGSGTKLEIK
B15: TM-78 (antibody, V domains shown)
VH: QVQLQQPGAELVKPGASVKLSCKASGYTFTNHWMHWVRQRPGQGLEWIGNIDPSDSDTHYNHKFKDKATLIVDKSSSTAYLQLSSLTSEDSAVFYCARSRGGYYDYGEAMDYWGQGTSVTVSS
VL: DIVMTQATPSIPVTPGESVSISCRSSKSLLHVNGNTYLFWFLQRPGQSPQLLIYRMSNLASGVPDRFSGSGSGTAFTLRISRVEAEDVGVYYCMQHLEYPFTFGSGTKLEIK
B16: TM-61 (antibody, V domains shown)
VH: QVQLQQSGAELAKPGASVKLSCKASGYTFTNYWMNWVKQRPGQGLEWIGYINPSSDYTKYNQNFKDKATLTADKSSSTAYMQLNSLTYEDSAVYYCTRWGGSRSYWYFDVWGAGTTVTVSS
VL: DIVMTQSPSSLSASAGEKVTMSCKSSQSLLNSGNQKNYLAWYQQKPGQSPKLLIYGASTRESGVPDRFTGSGSGTDFTLTISSVQAEDLAVYYCQNDSNYPFTFGGGTKLEMK
B17: TM-86 (antibody, V domains shown)
VH: EVQLQQSGPVLVKPGASVKMSCKASGYTFTDYYIHWVKQSHGRSLEWIGVISPYNDNTNYNQKFKGKATLTVDKSSSTAYMELNSLTSEDSAVYYCVRTYYSNYFDYWGQGTTLTVSS
VL: DIVMTQSPSSLSVSAGEKVTMSCKSSQSLLNSGNQKNYLAWHQQRPGQPPKLLIYGASTRESGVPDRFTGSGSGTEFTLTISSVQAEDLAVYYCQNDHSYPLTFGAGTKLELK
B18: TM-45 (antibody, V domains shown)
VH: QVQLQQSGAELAKPGASVKLSCKASGYTFTNYWMHWVKKRPGQGLEWIGYINPSSGYTKYNQKFKDKATLTADKSSNTAYMQLSSLTYEDSAVYYCTREGGSISDWYFDVWGTGTTVTVSS
VL: DIVMTQAAPSLPVTPGESVSISCRSSKSLLHSNGNTYLYWFLQRPGQSPQLLIYRMSNLASGVPDRFSGSGSGTAFTLRISRVEAEDVGVYYCMQHLEYPYTFGGGTKLEIK
B19: TM-28 (antibody, V domains shown)
VH: EVQLQQSGPVLVKPGPSVKISCMASVFTFNDYYIHWVKQSHGKSLEWIGLVYPYNGGTNYNQNFKGKATLTVDTSSRTAYMELNSLTSEDSAVYYCARSYFSNPIGYWGQGTLVTVSE
VL: DIVMTQSPSSLSVSVGEKVTVSCKSSQSLLNSGNQKNYLAWYQQKPGQPPKLLIYGASTRESGVPDRFTGSGSGTDFTLTISSVQAEDLAVYYCQNDHSYPLTFGAGTKLELK
B20: TM-37 (antibody, V domains shown)
VH: QVQLQQSGAELAKPGASVKLSCKASGYTFTSYWMHWVKQRPGQGLEWIGYVNPSSGYTKNNQKFKDKVTLTADKSSSTAYMQLSSLTYEDSAVYYCAREGGSISDWYFDVWGTGTTVTVSS
VL: DIVMTQAAPSVPVTPGESVSISCRSSKSLLHSNGNTYSYWFLQRPGQSPQLLIYRMSNLASGVPDRFSGSGSGTAFTLRISRVEAEDVGVYYCMQHLEYPYTFGGGTKLEIK
B21: TM-59 (antibody, V domains shown)
VH: QVQLQQSGAELAKPGASVKLSCKASGYTFISYWMHWVKQRPGQGLEWIGYVNPSSGYTKNNQKFKDKATLTADKSSSTAYMQLSSLTYEDSAVYYCAREGGSISDWYFDVWGTGTTVTVSS
VL: DIVMTQAAPSVPVTPGESVSISCRSSKSLLHSNGNTYSYWFLQRPGQSPQLLIYRMSNLASGVPDRFSGSGSGTAFTLRISRVEAEDVGVYYCMQHLEYPYTFGGGTKLEIK
Also: test concentration or dose not given here.

In this test the target is human TMEM106B (human, UniProt Q9NUM4 2-274). Kind of test: cell-based or functional assay.
As for B1, the “% Protection from CPE” value turned out to be 93.7%.
The same measure for B2: 92.6%; for B3: 93.9%.
For B4, the “% Protection from CPE” value was found to be 8.4%.
For the molecule B5, the “% Protection from CPE” value is 89.2%.
As to B6, the “% Protection from CPE” value came to 106%.
B7: the “% Protection from CPE” value worked out at 93.3%.
With B8 the figure was 90.4%.
For the molecule B9, the “% Protection from CPE” value came to 105%.
Turning to B10, the “% Protection from CPE” value came out at 94.2%.
As to B11, the “% Protection from CPE” value is 89.3%.
As for B12, the “% Protection from CPE” value came to 89.3%.
Take B13: the “% Protection from CPE” value was 92.7%.
With B14 the figure was 89.3%; with B15, 91.1%.
With B16 the figure was 94.1%; with B17, 90.5%; with B18, 32.6%.
As to B19, the “% Protection from CPE” value was 85.4%.
The same measure for B20: 90.2%.
With B21 the figure was 92.3%.
